Residue numbers refer to the chain shown, from its start. Numbers in names are those of the source. Where “and” joins values, the source holds several entries; their conditions need not be identical. Equal values may be shown once. Read-outs that look alike come from different tables or passages of the source.
Legend:
[1] = biological target: T1, recombinant C-terminally truncated RSV (A2 strain) F protein (RSV (A2 strain), UniProt P03420 26-524); test: SPR (BIAcore), Fab over immobilised F
T1 construct: extracellular domain; also called truncated F protein; extracellular domain of the F protein from RSV A2

[2] = biological target: T1, recombinant C-terminally truncated RSV …; test: SPR (BIAcore), Fab over immobilised F; remark: listed apart in the source
[3] = biological target: T2, F protein of RSV (Long strain) (RSV (Long strain), UniProt P12568 26-574); test: cell-based or functional assay
[4] = biological target: T1, recombinant C-terminally truncated RSV …; test: SPR (BIAcore), IgG over immobilised F
Target sequence in this assay (P03420 26-109, chain 1 of 2): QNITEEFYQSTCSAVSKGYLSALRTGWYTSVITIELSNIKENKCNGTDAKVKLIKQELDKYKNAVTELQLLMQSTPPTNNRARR
Target sequence in this assay (P03420 137-524, chain 2 of 2): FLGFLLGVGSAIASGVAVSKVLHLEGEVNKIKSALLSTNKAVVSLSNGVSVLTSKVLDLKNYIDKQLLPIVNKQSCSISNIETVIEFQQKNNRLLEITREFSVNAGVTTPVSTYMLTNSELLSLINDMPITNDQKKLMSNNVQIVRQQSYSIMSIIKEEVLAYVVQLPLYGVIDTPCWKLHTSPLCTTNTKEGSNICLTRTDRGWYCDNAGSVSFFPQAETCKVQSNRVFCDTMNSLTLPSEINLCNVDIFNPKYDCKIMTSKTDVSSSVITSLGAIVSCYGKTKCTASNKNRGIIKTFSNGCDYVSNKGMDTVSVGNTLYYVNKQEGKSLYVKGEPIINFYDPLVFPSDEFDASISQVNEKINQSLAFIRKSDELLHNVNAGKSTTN

[5] = biological target: T1, recombinant C-terminally truncated RSV …; test: SPR (BIAcore), Fab over immobilised F; remark: listed apart in the source
Target sequence in this assay (P03420 26-109, chain 1 of 2): as the sequence (P03420 26-109, chain 1 of 2) above
Target sequence in this assay (P03420 137-524, chain 2 of 2): as the sequence (P03420 137-524, chain 2 of 2) above

[6] = biological target: T2, F protein of RSV (Long strain); test: cell-based or functional assay; remark: listed apart in the source
murine FcRn = biological target: T3, murine FcRn (mouse, UniProt P01887 21-119); test: SPR (BIAcore 3000), FcRn over immobilised IgG1, pH 6.0, Scatchard
T3 construct: also called mouse FcRn; muFcRn
T3 sequence: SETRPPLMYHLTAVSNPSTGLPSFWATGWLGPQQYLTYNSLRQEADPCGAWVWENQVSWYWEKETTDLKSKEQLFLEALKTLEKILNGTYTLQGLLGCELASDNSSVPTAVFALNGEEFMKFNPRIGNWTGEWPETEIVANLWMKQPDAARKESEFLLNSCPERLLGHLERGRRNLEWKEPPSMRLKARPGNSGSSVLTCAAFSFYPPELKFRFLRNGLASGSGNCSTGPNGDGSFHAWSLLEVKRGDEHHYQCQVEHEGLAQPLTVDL
T3 sequence (b2m): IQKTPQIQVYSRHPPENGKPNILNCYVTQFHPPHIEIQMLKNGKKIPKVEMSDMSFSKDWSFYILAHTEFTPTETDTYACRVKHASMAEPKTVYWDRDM
Description: IgG1 variants was monitored by surface plasmon resonance detection using a BIAcore 3000 instrument (Pharmacia Biosensor, Uppsala, Sweden). […] The protein concentrations ranged from 3-5 μg/ml in 10 mM sodium acetate, pH 5.0. The activation period was set for 7 minutes at a flow rate of 10 μl/min and the immobilization period was set to between 10 and 20 minutes at a flow rate of 10 μl/min. […] Human and murine FcRn were buffer exchanged against 50 mM PBS buffer pH 6.0 containing 0.05% Tween 20. Dilutions were made in the same buffer. All binding experiments were performed at 25° C. with concentrations ranging from 120 to 1 μg/ml at a flow rate of 5 to 10 μl/min; data were collected for 25 to 50 minutes and three 1-minute pulses of PBS buffer pH 7.2 were used to regenerate the surfaces. FcRn was also flowed over an uncoated cell and the sensorgrams from these blank runs subtracted from those obtained with IgG1-coupled chips. Runs were analyzed using the software BIAevaluation 3.1 (Pharmacia). Association constants (KAs) were determined from Scatchard analysis by measuring the concentration of free reactants and complex at equilibrium after correction for nonspecific binding.

B1: AFFY Fab (Fab, name in Kabat numbering, V domains shown)
VH: QVTLRESGPALVKPTQTLTLTCTFSGFSLSTAGMSVGWIRQPPGKALEWLADIWWDDKKDYNPSLKSRLTISKDTSKNQVVLKVTNMDPADTATYYCARSMITNFYFDVWGQGTTVTVSS
VL: DIQMTQSPSTLSASVGDRVTITCSASSSVGYMHWYQQKPGKAPKLLIYDTFKLASGVPSRFSGSGSGTEFTLTISSLQPDDFATYYCFQGSYYPFTFGGGTKVEIK
Question: B1 was tested. Which “fold higher affinity than palivizumab Fab” value [1] did it give?
Answer: > 117 fold

Question: And the Kd [2]?
Answer: ≤ 0.041 nM

Question: What about the koff [2] of the same binder?
Answer: ≤ 5e-06 s⁻¹

Question: And the kon [2]?
Answer: 122000 M⁻¹ s⁻¹

Question: What about the “Microneutralization IC50, Fab” value [3] of the same binder?
Answer: 0.0754 µg/ml and 1.51 nM

B2: AFSF Fab (Fab, name in Kabat numbering, V domains shown)
VH: B1 VH
VL: B1 VL with F51S, Y92F
Question: Which results are given for B2?
Answer: fold higher affinity than palivizumab Fab [1]: > 117 fold; Kd [2]: ≤ 0.044 nM; koff [2]: ≤ 5e-06 s⁻¹; kon [2]: 113000 M⁻¹ s⁻¹; Microneutralization IC50, Fab [3]: 0.0908 µg/ml and 1.82 nM

B3: PFFF Fab (Fab, name in Kabat numbering, V domains shown)
VH: B1 VH with A32P
VL: B1 VL with Y92F
Question: How did the “fold higher affinity than palivizumab Fab” value [1] turn out when B3 was run?
Answer: > 117 fold

Question: What about the Kd [2] of the same binder?
Answer: ≤ 0.045 nM

Question: And the koff [2]?
Answer: ≤ 5e-06 s⁻¹

Question: And the kon [2]?
Answer: 110000 M⁻¹ s⁻¹

B4: AFFY IgG (antibody, name in Kabat numbering, V domains shown)
VH: B1 VH
VL: B1 VL
Question: What does the source list for B4?
Answer: koff [4]: ≤ 5e-06 s⁻¹; kon [4]: 144000 M⁻¹ s⁻¹; Microneutralization IC50, IgG [3]: 0.407 µg/ml and 2.71 nM

B5: A17f5 Fab (Fab, V domains shown)
VH: B1 VH with S67D, S100D, T103F, F105W
VL: B1 VL with A25L, S28R, K52R, L53H, A54T, Y92G
Question: How did the Kd [5] turn out when B5 was run?
Answer: 0.154 nM

Question: And the koff [5]?
Answer: 8.4e-05 s⁻¹

Question: What about the kon [5] of the same binder?
Answer: 544000 M⁻¹ s⁻¹

Question: What about the “fold improvement in koff (against palivizumab Fab)” value [1] of the same binder?
Answer: 8 fold

Question: And the “fold increase in kon over W100F” value [1]?
Answer: 3 fold

Question: And the “Microneutralization IC50, Fab” value [6]?
Answer: 0.106 µg/ml and 2.12 nM

B6: AFSF IgG (antibody, name in Kabat numbering, V domains shown)
VH: B1 VH
VL: B1 VL with F51S, Y92F
Question: With B6 as the binder, how does the koff [4] read?
Answer: ≤ 5e-06 s⁻¹

Question: And the kon [4]?
Answer: 147000 M⁻¹ s⁻¹

Question: What about the “Microneutralization IC50, IgG” value [3] of the same binder?
Answer: 0.521 µg/ml and 3.47 nM

B7: human IgG1 MEDI-493 (palivizumab) M252Y/T256Q (antibody)
heavy: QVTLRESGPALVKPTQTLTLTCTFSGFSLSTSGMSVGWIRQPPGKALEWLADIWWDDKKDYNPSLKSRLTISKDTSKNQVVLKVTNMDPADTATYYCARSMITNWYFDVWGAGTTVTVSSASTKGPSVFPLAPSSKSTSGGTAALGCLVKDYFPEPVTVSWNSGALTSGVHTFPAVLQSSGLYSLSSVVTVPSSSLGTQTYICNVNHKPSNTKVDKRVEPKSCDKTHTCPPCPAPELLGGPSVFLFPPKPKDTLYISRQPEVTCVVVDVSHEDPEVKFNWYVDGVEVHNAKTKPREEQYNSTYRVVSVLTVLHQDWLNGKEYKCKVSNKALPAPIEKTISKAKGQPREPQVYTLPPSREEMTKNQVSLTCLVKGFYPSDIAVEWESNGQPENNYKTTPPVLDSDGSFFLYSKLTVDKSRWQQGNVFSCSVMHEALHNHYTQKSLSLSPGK
light: DIQMTQSPSTLSASVGDRVTITCKCQLSVGYMHWYQQKPGKAPKLLIYDTSKLASGVPSRFSGSGSGTEFTLTISSLQPDDFATYYCFQGSGYPFTFGGGTKLEIKRTVAAPSVFIFPPSDEQLKSGTASVVCLLNNFYPREAKVQWKVDNALQSGNSQESVTEQDSKDSTYSLSSTLTLSKADYEKHKVYACEVTHQGLSSPVTKSFNRGEC
Question: Which Kd (murine FcRn) does the source give for B7 here?
Answer: 39 nM

Question: What about the ΔΔG (murine FcRn) of the same binder?
Answer: 1.1 kcal/mol

B8: human IgG1 MEDI-493 (palivizumab) N434F/Y436H (antibody)
heavy: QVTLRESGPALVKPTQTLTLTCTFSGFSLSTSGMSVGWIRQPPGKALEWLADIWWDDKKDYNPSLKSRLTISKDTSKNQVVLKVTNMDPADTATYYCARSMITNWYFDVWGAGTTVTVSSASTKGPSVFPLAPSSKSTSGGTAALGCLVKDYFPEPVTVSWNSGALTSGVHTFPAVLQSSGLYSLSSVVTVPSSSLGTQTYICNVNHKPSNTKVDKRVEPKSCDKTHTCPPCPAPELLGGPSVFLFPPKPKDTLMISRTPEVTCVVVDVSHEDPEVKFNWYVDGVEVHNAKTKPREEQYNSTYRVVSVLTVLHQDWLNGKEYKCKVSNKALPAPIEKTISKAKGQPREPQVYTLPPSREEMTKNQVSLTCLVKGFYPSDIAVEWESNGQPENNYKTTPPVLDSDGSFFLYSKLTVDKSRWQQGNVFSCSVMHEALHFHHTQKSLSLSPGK
light: B7 light
Question: For B8, which Kd (murine FcRn) is on record?
Answer: 9 nM

Question: And the ΔΔG (murine FcRn)?
Answer: 2 kcal/mol

Source: patent US20110158985A1 (published 2011)
